This note sets out measurements from patent publication US20240358755A1 (IMMATICS BIOTECHNOLOGIES, published 2024).

One test has as its target T1, HLA-B*07:02 (human).
T1 construct: Peptide-receptive monomer in the UV-ligand exchange assay
In words: UV peptide exchange, anti-b2m ELISA; exchange yield grade. The source says:
(§1) Candidate peptides for T cell based therapies according to the present invention were further tested for their MHC binding capacity (affinity). The individual peptide-MHC complexes were produced by UV-ligand exchange, where a UV-sensitive peptide is cleaved upon UV-irradiation and exchanged with the peptide of interest as analyzed. Only peptide candidates that can effectively bind and stabilize the peptide-receptive MHC molecules prevent dissociation of the MHC complexes. To determine the yield of the exchange reaction, an ELISA was performed based on the detection of the light chain (β2m) of stabilized MHC complexes. The assay was performed as generally described in Rodenko et al. (Rodenko et al., 2006).
(§2) 96 well MAXISorp plates (NUNC) were coated over night with 2 μg/ml streptavidin in PBS at room temperature, washed 4× and blocked for 1 h at 37° C. in 2% BSA containing blocking buffer. […] Peptide-MHC monomers of the UV-exchange reaction were diluted 100-fold in blocking buffer. Samples were incubated for 1 h at 37° C., washed four times, incubated with 2 μg/ml HRP conjugated anti-β2m for 1 h at 37° C., washed again and detected with TMB solution that is stopped with […]. Absorption was measured at 450 nm.
On the technique in general: ELISA stands for enzyme-linked immunosorbent assay.

The target of the next test is T2, HLA-A*03:01 (human).
T2 construct: Peptide-receptive MHC class I monomer in the UV-ligand exchange assay
The description is as above.
Text: as §1, §2

SPVETRSLL: in the test with HLA-B*07:02, the peptide exchange yield was 50 to 75%.

For VIYNQTLMK, the peptide exchange yield with HLA-A*03:01 was not below 75%.

Turning to LIYIPTNSIYK, the peptide exchange yield with HLA-A*03:01 was not below 75%.

MLSAQFILK returned a peptide exchange yield with HLA-A*03:01 not below 75%.

In turn, KIMEILNLK yielded a peptide exchange yield with HLA-A*03:01 not below 75%.

Consider MIFSGVFLR, for which the peptide exchange yield in the test with HLA-A*03:01 was not below 75%.

In turn, KTIDLVIVR gave a peptide exchange yield with HLA-A*03:01 not below 75%.

With SVISVLTTPK, in the test with HLA-A*03:01, the peptide exchange yield is not below 75%.

Turning to AILVPQPPK, the peptide exchange yield in the test with HLA-A*03:01 was 50 to 75%.

As to GVCSTLTIK, the peptide exchange yield in the test with HLA-A*03:01 was not below 75%.

On to SLFGGLFTR, for which the peptide exchange yield in the test with HLA-A*03:01 is not below 75%.

The molecule TTAAVYILK returned a peptide exchange yield with HLA-A*03:01 of 50 to 75%.

In the test with HLA-A*03:01, AVVSHFILY showed a peptide exchange yield of 50 to 75%.

In the case of IIVPSFYK, in the test with HLA-A*03:01, the peptide exchange yield was 50 to 75%.

For VVRASSGLK, the peptide exchange yield in the test with HLA-A*03:01 was 50 to 75%.

LALLGAPPPK: in the test with HLA-A*03:01, the peptide exchange yield is 20 to 50%.

TLLSFKTVLFK: the peptide exchange yield with HLA-A*03:01 was not below 75%.

Consider MVNWSLTNK, for which, in the test with HLA-A*03:01, the peptide exchange yield was not below 75%.

On to TVATQVATSK, for which the peptide exchange yield in the test with HLA-A*03:01 was in the range of 50 to 75%.

The molecule AVLGALLRH gave a peptide exchange yield in the test with HLA-A*03:01 not below 75%.

The molecule RTLPLEGSPK showed a peptide exchange yield in the test with HLA-A*03:01 of 50 to 75%.

In the case of RIVTYIVAK, the peptide exchange yield with HLA-A*03:01 fell in the range of 50 to 75%.

For the molecule GTVFVLLSK, the peptide exchange yield with HLA-A*03:01 lay in the range of 20 to 50%.

In turn, RLCPAAPTGK returned a peptide exchange yield in the test with HLA-A*03:01 not below 75%.

With ATNSFLLIK, the peptide exchange yield with HLA-A*03:01 was not below 75%.

In the case of ILQLITVNR, in the test with HLA-A*03:01, the peptide exchange yield is 50 to 75%.

The molecule RVIEVVMNSK displayed a peptide exchange yield with HLA-A*03:01 not below 75%.

In turn, MTYQQPFSNR displayed a peptide exchange yield with HLA-A*03:01 not below 75%.

For LIAGLIFLK, the peptide exchange yield with HLA-A*03:01 was 50 to 75%.

As for ALAQGANLK, the peptide exchange yield in the test with HLA-A*03:01 was 50 to 75%.

TVTSAIVNR had a peptide exchange yield with HLA-A*03:01 of 50 to 75%.

In the test with HLA-A*03:01, MTFVPLLAR returned a peptide exchange yield not below 75%.

The molecule LSGPVTFLR yielded a peptide exchange yield with HLA-A*03:01 of 50 to 75%.

AILLPQLPK returned a peptide exchange yield with HLA-A*03:01 not below 75%.

In the test with HLA-A*03:01, RLYSGSSFLY yielded a peptide exchange yield not below 75%.

For the molecule ASAIPAGAK, in the test with HLA-A*03:01, the peptide exchange yield is 50 to 75%.

As for SVFSLVHLFDK, the peptide exchange yield with HLA-A*03:01 is not below 75%.

On to ATLQAVTLYKK, for which the peptide exchange yield in the test with HLA-A*03:01 was not below 75%.

In turn, AILAPPAILK came in with a peptide exchange yield in the test with HLA-A*03:01 not below 75%.

The molecule SLFPYFLNK had a peptide exchange yield with HLA-A*03:01 not below 75%.

Turning to ETYGTFVLR, the peptide exchange yield with HLA-A*03:01 was 50 to 75%.

With VIFLHQPPK, in the test with HLA-A*03:01, the peptide exchange yield is not below 75%.

GSCSFALSR yielded a peptide exchange yield with HLA-A*03:01 not below 75%.

In turn, KVGAVVHLK had a peptide exchange yield in the test with HLA-A*03:01 of 50 to 75%.

On to GTFIAPVMK, for which the peptide exchange yield with HLA-A*03:01 was not below 75%.

Molecule SLATAISAK showed a peptide exchange yield in the test with HLA-A*03:01 of 50 to 75%.

IVFLLQQGEK: the peptide exchange yield with HLA-A*03:01 fell in the range of 50 to 75%.

For AVFLGNPSNQK, the peptide exchange yield in the test with HLA-A*03:01 was not below 75%.

LLFKGLMWK yielded a peptide exchange yield with HLA-A*03:01 not below 75%.

Take KVLVDFLLK: in the test with HLA-A*03:01, the peptide exchange yield lay within 50 to 75%.

In the test with HLA-A*03:01, ILAASFQAR displayed a peptide exchange yield of 50 to 75%.

In the test with HLA-A*03:01, SVYMATTLK returned a peptide exchange yield not below 75%.

With AVFVNWEQTKK, in the test with HLA-A*03:01, the peptide exchange yield was not below 75%.

On to RILEVVRQPK, for which the peptide exchange yield with HLA-A*03:01 was not below 75%.

Consider TTLENLPQK, for which the peptide exchange yield with HLA-A*03:01 lay within 50 to 75%.

In the test with HLA-A*03:01, SMNSKALRWK showed a peptide exchange yield of 50 to 75%.

Regarding STQSSLLYLK, the peptide exchange yield in the test with HLA-A*03:01 lay within 50 to 75%.

In the test with HLA-A*03:01, SLIPIVPFKS came in with a peptide exchange yield of 20 to 50%.

KLIAGLIFLK returned a peptide exchange yield with HLA-A*03:01 of 50 to 75%.

Molecule KLLLLSSVK came in with a peptide exchange yield with HLA-A*03:01 of 50 to 75%.

In the test with HLA-A*03:01, GSLQTLPPK came in with a peptide exchange yield of 50 to 75%.

ILAPPAILK displayed a peptide exchange yield in the test with HLA-A*03:01 not below 75%.
